Key:
[1] = target: human deoxyuridine 5′-triphosphate nucleotidohydrolase (dUTPase), nuclear isoform (human); assay: native MS; ESI-QTOF, positive mode; 5 mM NH4HCO3 pH 7.5; hDUT, Stl or both at ca. 0.5 µM monomer
[2] = target: Staphylococcal repressor protein Stl_(SaPIBov1) (Staphylococcus aureus) (UniProt Q9F0J8); assay: as above
[3] = target: Staphylococcal repressor protein Stl_(SaPIBov1) (Staphylococcus aureus) (UniProt Q9F0J8); assay: ITC; Stl in the cell, hDUT in the syringe; 20 °C; 20 mM HEPES pH 7.5, 300 mM NaCl, 5 mM MgCl2, 1 mM TCEP; one set of independent sites; mean and SD of three measurements; concentrations of protomers; apparent affinity
[4] = target: human deoxyuridine 5′-triphosphate nucleotidohydrolase (dUTPase), nuclear isoform (human); assay: SAXS; batch measurements of hDUT (0.2-2.0 mg/mL) and of Stl (0.2-0.9 mg/mL) alone; 50 mM HEPES pH 7.5, 300 mM NaCl, 5 mM MgCl2; 20 °C in the text, 283 K in Table 1
[5] = target: human deoxyuridine 5′-triphosphate nucleotidohydrolase (dUTPase), nuclear isoform (human); assay: SEC-SAXS; hDUT:Stl complex (100 µL at ~8 mg/ml) on an S200 Increase 10/300 column in 50 mM HEPES pH 7.5, 300 mM NaCl, 5 mM MgCl2, in line with SAXS; two regions of the peak analysed
[6] = target: Staphylococcal repressor protein Stl_(SaPIBov1) (Staphylococcus aureus) (UniProt Q9F0J8); assay: as above
[7] = target: human deoxyuridine 5′-triphosphate nucleotidohydrolase (dUTPase), nuclear isoform (human)
Stl (StlSaPIBov1) = Stl (StlSaPIBov1) (Staphylococcus aureus pathogenicity …, UniProt Q9F0J8 1-267); assay: EMSA; no hDUT; 100 mM NaCl; […]; binding buffer pH not stated; settings: protein: recombinant; tags: GST-tag cleaved by thrombin, His-tag removed; N-terminal vector-derived extension remains; chain copies: 2; blunt

human deoxyuridine 5′-triphosphate nucleotidohydrolase (dUTPase), nuclear isoform (enzyme)
stoichiometry N [1]: 3
stoichiometry N (hDUT:Stl (3:2)) [2]: 1.5
Kd [3]: 230 nM
stoichiometry N (hDUT protomer per Stl protomer) [3]: 1.27
stoichiometry N [4]: 3
stoichiometry N [5]: 3
stoichiometry N (hDUT:Stl (3:2, region 2)) [6]: 1.5
stoichiometry N (hDUT:Stl (3:3, region 1)) [6]: 1

Staphylococcal repressor protein Stl_(SaPIBov1) (from UniProt Q9F0J8 1-267) (natural protein)
maximal inhibition of hDUT catalytic activity by Stl [7]: 70%

B1: interR 43 bp (dsDNA)
DNA 1: ATGTTGAAATAAATATCTCGATGTGAGATAATTTGTTCGAGGA
DNA 2: TCCTCGAACAAATTATCTCACATCGAGATATTTATTTCAACAT
binding result (Stl (StlSaPIBov1)): binds

— paper PMC5847570, “Structural model of human dUTPase in complex with a novel proteinaceous inhibitor”
